Data as given in patent US20200308294A1 (published 2020).
Blank lines part the entries; values can stand above or below the molecule they belong to.

Experiments:
VEGF = VEGF (UniProt P15692); experiment: VEGF co-incubated with AB160, particulate removed, free VEGF in the supernatant measured by ELISA
[1] = biological target: ABRAXANE (albumin-bound paclitaxel) (UniProt P02768); experiment: flow cytometry of particles stained with goat anti-mouse IgG and PE detection; ABX alone as comparison
[2] = biological target: AB160 (nanoparticle of albumin-bound paclitaxel and bevacizumab, ratio about 10:4, average size 160 nm) (UniProt P02768); experiment: flow cytometry of particles stained with goat anti-mouse IgG and PE detection
[3] = biological target: T1, ABRAXANE (albumin-bound paclitaxel) (UniProt P02768 25-609, non-covalently bound paclitaxel (nanoparticle of about 130 nm)); experiment: VEGF co-incubated with ABX for 2 hours, particulate spun down, free VEGF in the supernatant measured by ELISA
T1 construct: A nanoparticle of many albumin molecules with paclitaxel, not a single protein; also called ABX; Paclitaxel Albumin-stabilized Nanoparticle Formulation
Protocol: The VEGF was incubated with the nanoparticles for 2 hours at room temperature. The suspension was spun at 6000 rpm for 15 minutes, supernatants were collected and free VEGF was measured by ELISA. Briefly, ELISA plates were coated with capture antibody overnight at 4° C. Plates were washed, blocked and standards and samples were added. After washing, detection antibody was added and plates were developed with substrate (R and D Systems, Minneapolis, Minn.). […] The concentration of unbound VEGF was determined with a standard curve from 0 to 2000 μg/ml.

% VEGF unbound (VEGF): < 10%
Molecule: AB160 (nanoparticle of albumin-bound paclitaxel and bevacizumab, ratio about 10:4, average size 160 nm) (from UniProt P02768 25-609)

% positive [1]: 6.7%
% positive [2]: 41.2%
Molecule: goat anti-mouse IgG (antibody)

binding result [3]: no binding (tested: >80% VEGF unbound)
B1: VEGF (ligand, UniProt P15692-4 27-191, looked up)
chain: APMAEGGGQNHHEVVKFMDVYQRSYCHPIETLVDIFQEYPDEIEYIFKPSCVPLMRCGGCCNDEGLECVPTEESNITMQIMRIKPHQGQHIGEMSFLQHNKCECRPKKDRARQENPCGPCSERRKHLFVQDPQTCKCSCKNTDSRCKARQLELNERTCRCDKPRR
notes: Soluble VEGF added to the nanoparticles
